Source: a protein production outcome set (Wang et al. 2014)

Experiment: label from the status in PepcDB records

Row | Sequence | protein production
1 | MSTSLTIRLVAEADWPALHALDQIIWTKKNTPAEIQPLSLAAYQEKMKDETIFVAISGQQLAGFIEVHPPTSLAAHQKQWLLSIGVSPDFQDQGIGGSLLSYIKDMAEISGIHKLSLRVMATNQEAIRFYEKHGFVQEAHFKEEFYINGHYCDDYQYAYFIEK | not failed
2 | MFGAKKNNTKIIEQLEKKCNGLGDILRSIGNTMAVIEFTTDGVILEANQNFLTTMKYSLSEIKGKHHSMFCLPEVVNSSAYSDFWKDLRDGKARSGLFRRIAKGGIDVYLEANYLPISDNNGYVYKIIKFANDITQRHYEMLDLRNTIAAANRSMAIIEFKPDGTIITANENFLRAMDFNIDEIKGKHHSMFCDSNYRHSKDYVQFWEDLREGKFQSGKYIRYGRNNKKVYLEASYNPVKNDDGKIYKVIKFATDISEQVKKDQEKLRLISELAEKNDNLTQDGDRVIENTVSNVQNIADMMSQSSNLVSSLNQQSDEIKSIIQTISDIADQTNLLALNAAIEAARAGEHGRGFAVVADEVRNLAERTGHSVNEITTTINSIRNVTSQVVESIKSGLEDVNQSVELAKEARECMEKIRESSAEVAKAMS | failed
3 | MAHHHHHHMADQNPDLKVEEALKGADIKLLLIDFDGTLFVDKDIKVPSENIDAIKEAIEKGYMVSICTGRSKVGILSAFGEENLKKMNFYGMPGVYINGTIVYDQIGYTLLDETIETDVYAELISYLVEKNLVNQTIFHRGESNYVTEDNKYADFLQKMYSENRSIIIRHNEMLKYRTMNKLMIVLDPSESKTVIGNLKQKFKNKLTIFTTYNGHAEVTKLGHDKYTGINYLLKHYNISNDQVLVVGDAENDIAMLSNFKYSFAVANATDSAKSHAKCVLPVSHREGAVAYLLKKVFDLKK | not failed
4 | MDNASEQRNYTTFWVGLASLTLEVVFIMAKSRVKKRPDGRYAMQIYLGTVDGKRKYKTVYGGTPKEVQKKADEVRILMGKGIDISAQRDTFKEWGNHWLKIKKAIVSSAHYKTCEQKLRIINCYIGDMPISQIKTANVQNIIFDLSSLNRWTGKPTAKRTLVEYRSVCRQVFQLAIENRIIDYNPASSVKIVSNQLKKERRALSVEEQGWIINTPHRAQKAAMIMMFAGLRRGEVIPLTWNDIDFEAGTIRVNKSVFKEGTRFNIKSGAKTESGNRVVNIPQILIDFLKLQPKDTILVCPDTKDVMMTETSWRRMWDSYIKDLNIKYGDLNGKRSKYDPKGVPITIPRITPHWLRHTFCTLLYLSGTDVLTAKEQMGHSDIKTTLGIYTHLDKEHKRNAVSKLNEYIETHASHMQVKNS | failed
5 | MFFSKLFRKDAASCLEKGEKLLAAGRFAEARLSLEDALERLDAHSPEGATTAAVIREKMVVAGNRLAEMNLQEAEHCLKSGEFAKAEEHLNLTLDLADDVTIRDKAVKSFALLEKQIPHVHHHEKKGGCGGCGGSTSQHSENIELEDDGLNDMDRFELLVRPLPGDLPERYADLGEEFAGGYLAAHGGDQMTAEKVFERLLASGESDILLYELAILSHQGGDGRRCETLLRRALALNDTNPLCNLSLVQLLTENGRFTEAVPLLERMVERDILPDQAGMFLGEIYRVQGESDRAIAQFSQLLSTPLKREAAERLVGLLETTGRSQEAALVAKQYLKGCC | failed
6 | MLDLNPNQSYIIRINKKGGINMHWLADLLAAIGVVLNGIPQGIMAMSLGFAVFPTAFSFGLVGLINGVASSVAPVSFQAESLALVGHLGHDLRERSSIIFLGASLMFVIGLTGTLPLIVHSLGNQLMAAMMAGVGLMLAKIALQMAHEQPQFGWLSIGLAGVTYLISKDLVWTIAVSVIGTSCYAATTHYRVALPEHVTTRKLQFVRPQFSFKILRGALSLACLNIGANLSYGLITGQMTGQHPNPVNLNLLTSSQALADLGTSLLGGAPVETIISATASAPEPVIAGILMMLIMMLILLLGWLPKLGKVVPSTAIAGFLFILGTIVIFPENATTALHGSLSTVAGVTLVVTALVDPFAGLMTGALLKFGLPLIGLGL | failed
7 | MIKLYSPYAFLSKYLGAILLSFFCYYAKEIGCNNLTLSVWNDNEGALRFYQRQGMKPQETTMEMIID | failed
8 | VGFLMFGNLLRECGVLDRLSQTAQNELVNIISILLGLTISIKMQADLFLNVQTL | failed
9 | MLFELVILFVILFLFLGYPISKAWDSFQSKKENSSSILKFEPQEILSICLSYFIFGLGIMWNANDVRGGIPLHKFEKNGMMSDQYASLAHDHIAIVVLLVILGAVSYWRLTKGLTKLSPIFYIFYSTLMIVNIVYTFIYITHTGFAFYTELGGLRYIPVFCIQVGMLAFSLLFIAKLRNTLDYFIQSQNEKDYTQSNRIILLLYRISFGYQKMATVWMISLFPVLLIIQFILILFGQKPDSFIRVFMETSSFNYSKIPAPSPQIVSGDGHYLCTVSVKGHKNIVKPLRAGIRHGERITVNRQLLIANAFENVIEERVPKCHKVIRNFYDKYGYPISKHINTKWSADFVYILMKPLEWFFLFVLYTVDKNPENRIHIQYSELRK | failed
10 | MNILLRLQLFFQITGHYASYFLAYIFETIFFLIFVFVSLIAMIYLFRKYMARLQLRYGPNRVGKFGSLQLIADAIKLVGKESILPKLRDDFAYKTAPYIVFIGLVVGFILIPYGDFYWIGSLTITHSDVSLILFFGAIAMMPIGEILAGISSHNKYALLGAMRGVAKDVSFEVPMMLSAIALVMMDSAVNKTPLEFSSLVSTQFIPFGILQPLGLFVFMVAMIARSSYTPFDLSESDSEIVSGYSTEYSGMRFGLFYMGMFGSIFLGSLVISLLYLGGYNGPYSSYAGFIYLLIKGLIMVLISFLIWLSMPRIRIDRFVNFGWKILLPIAIINLIWAGFLTLGVIS | failed
11 | MTTNRYMKGIMWAMLASTLWGVSGTVMQFVSQNQAIPADWFLSVRTLSAGIILLAIGFVQQGTKIFKVFRSWASVGQLVAYATVGLMANMYTFYISIERGTAAAATILQYLSPLFIVLGTLLFKRELPLRTDLIAFAVSLLGVFLAITKGNIHELAIPMDALVWGILSGVTAALYVVLPRKIVAENSPVVILGWGTLIAGILFNLYHPIWIGAPKITPTLVTSIGAIVLIGTIFAFLSLLHSLQYAPSAVVSIVDAVQPVVTFVLSIIFLGLQVTWVEILGSLLVIVAIYILQQYRSDPASD | failed
12 | GTIGPVADAEPHAAALGEAFQLTNFLRDVGEDLDRGRVYLPADELAAFGVDTELLAHSRRSGTTDQRIVRALAHLISVTRSVYRDAEPGIAMLDRRVQPGIRTAFVLYSRILDEIERGGYRVLDRRATVSRRNRWATALPQFARLAV | failed
13 | MPHSRPLSRLRASLILLLVSFIWGSAFVAQKTAFDAVEGATAPALGPLAFTGARFLLGALVVLPFALRENRQARSRGAPGAGLLAIFCGIGAVLFAASFTQQLGIIGTSVTNAGFLTALYVPLVPVVALVIFRQSVRKMIWPGAAGCLAGLWLLTGAATNGLSALTAGDLWVLVGALFWAFHVTVVGVMATRSGRPLTLAAAQFLTCGVLGWAGAFAFETPTLAGMAAIAPEIAYAGILSVGVAFTLQVVAQRHTHPAAAAIILSMEMVFASLAAVVVLGERLSGVQWLGAGLILASIIAVESAAALGDRRRGAAGALTP | failed
14 | MARQTYGTTPWGAWFLDMLKAYDDSGRLSRGKTYANTGKVNSLVVNGQTAGAKVKGNYSPWYHVYFKFPPLSKTNKTAIRSILEKHPIELAGLRAGIMSPALIEALKKKKVRLIPARWNLIERDCTCPDSGDPCKHMAAVLFLLAKEIDHDPRLLFKLAGFDIDSINVPETEVFEKGGTQKLGLLQEQPVPLSLRKNETLNKAADLSSDSSVSETAHNSCELQSPLKFSLGESYLPLITNILPPEPNFSSSDFIIKLTEFYHKAVLNYGLNFYGQEKQSEKQEEKSVNPFLFARVKVNIDNIRKQKRAFPLEPKSPLTVNIKLGETHEINQTLLQAQNFYKTRNSLNEMSPSVKILFSLFALAGKLIQSSAFIPAVFTENKKLFIFWKSLSASSEIKADIFKFAASLTKDFFLPVGKWGRLYCAELLLTALLTEYAASLKFFPNKSYTKDKEIDKLFFLNEEIDISVPGKRNLDTVIYSWLSVLNYSNCGYEYRLTLEALKDDEFFLLSALVRKAKEKRIEAGDDSFALEAEAPFAELNTAAKRSKNPDDILRFPATLAAYLPALSILAIKKNVMLSREETGLFLQKSAKLLQRFGIDIVLPKSLKNILTPKPVISVKSVKGAGNIVSFLNIDDVLSYDRALMLGDTLIDIDEFKKLFLNKSGLVKFNDQFLLLDPEEVAKMLKALEKPADTKEVLQAVLSGNAVCSKPASEIIKNIFRQEEVPVPQNLNAELRPYQKQGYRWLYANIKSGFGCLLADDMGLGKTVQIISLMLSFKNSKEAESPFLVIAPASLLSNWEHEIAKFAPSLKTAVYHGAGRKFTTEADVIISTYQTMQKDIEKLKDKKVFCIILDEAQAIKNSGTKKAHAVKAIQARGRVALTGTPVENNLEDMRSIFDFFLPGYLGTADEFRKKWRIPIELHNSETEADDLKKITSPFLLRRLKTDPKVISDLPDKIITNQYCNLTPEQLAIYENLVETELHKVMGAETKIERQAYVLKLLTALKQVCNHPRAYDKETPIEMKYSGKAAVLIELLNEIISSGEKAIIFSQYVGTLDILKNIIQKELGTEPLLLHGQMPASKRKKAVEVFQTDSAYRIFLISLKAGGTGLNLTAANRVIHFDLWYNPAVEDQATDRAFRIGQTKNVFVHRLICSGTFEEKIDEMIQKKREISGMSISAGETWISKLSNEELAGLFKS | failed
15 | MVSACGLIALGLDNQAARMAARLRDLAREWRALPPHAARRGAVAEQVAVLDRRHGLYSRALLLNYGALFAFVVTSLLWLGQAYWSVPPELPVLVFGLGVAMLAAMAVLVIASITLARSTIEAEAAEVLRERRAPPASGRPAPARG | failed
16 | IPLGIYEKALPAGECWLERLKLAKALGFDFVEMSLDETDARLARLDWSPEQRLALVKAVAETGVRVPSMCLSAHRRFPLGSEDDAVRHQGLEIMRKAIQLAQDVGIRVIQLAGYDVYYQQANDETRRRFRDGLKQSVEMASRAQVTLAMEIMDYPLMNSISKALGYAHYLNNPWFQLYPDIGNLSAWDNDVQMELKAGSGHIVAVHVKDTKPGVFKNVPFGEGVVDFERCFETLKQTGYCGPYLIEMWSETSADPLAEVAKARDWVKARMARAGLM | not failed
17 | MKSILEQLSSITVVVADTGDLDAIKKFQPRDATTNPSLILAAAKNPDYIKLIDQALESSRKSLPAGFSESELIKETIDQVSVFFGKEILNLISGRVSTEVDARLSFDTEATVTKARKLINHYKSFGINKERILIKIASTWEGIKAAEILEKEGIKCNLTLLFNFCQAVACANAKITLISPFVGRILDWHKAKTGKDNFAGCEDPGVISVTKIYNYFKEKGFKTEVMGASFRNIDEIKELAGCDLLTIAPKFLDELNREEGELIKKLDEDTQSQSSIDYKFDEKDFRLSMLEDQMASEKLSEGITGFSKAIEELEELLLKRLSEINNQKLISTT | failed
18 | MADLRLEREFAVAPEALFAWVSDGAKLLQWWGPEGLHVPADQHDLDFTRLGPWFSVMVNGEGQRYKVSGQVTHVKPPQSVGFTWGWHDDDDRRGAESHVMFIVEPCAKGARLILDHRELGDDEMSLRHEEGWTSSLRKLAAELALEHHHHHH | not failed
19 | MNKRPASGTGHSVLRRSTRRQLLGAAAGATAALCGCLDDNGTDRTEPLDVSIGDVATYRYGPQRRGVADTTVPETAPDERWRLNTDWPVRAAPAVVGGVVYHCGNGLAAVDAVDGERLWRVDTDGPSETPPAVADGVVFAGTHRGRLHAINSDGTEHWTASGNGRIDAAPVVVDGRVYTASRATDGEVYAFEAGGREWTHEAVYRVNSPPAVADGLVFVGGWEGAVYGIDADSGERQWRTATDGPVLSSPAVADGRVFAGGNDGVVRALDVADGDERWQVETAATPTAPAVADGSLYVGDADGRLRRLDAATGEEGWQVTVASGIGVPPTVVEGTVVVGTTDGGVVAVDAADGTERWRVDTGERIRSQPVLAAGRVFVGSGRRLLALGK | failed
20 | MTPTQNVPEDRIQIGQLRSAYGLNGWLWVYSNTEPMSNMFDYLPWFIETKAGWQTVDVKRWKPHGKGLVVSLKNVSDRNAAESLIGSTIWVAKSQLPKTDVDEYYWSDLKGLTVLGLDEEEQEVNLGQIHELFETGANDVMVVRATADSVDAEERMIPWHKDVVQRVDLEAGRIYVNWGVDYLEHHHHHH | not failed
